Eight molecules from patent US20250034594A1, “RNA-GUIDED GENOME RECOMBINEERING AT KILOBASE SCALE” (THE BOARD OF TRUSTEES OF THE LELAND STANFORD JUNIOR …, priority 2021, published 2025) can be followed below.

For series [1], the system named is endogenous genomic loci (DYNLT1, HSP90AA1, AAVS1, ACTB) in HEK293T cells. Kind of series: Kilobase mKate knock-in assay in HEK293T cells (flow cytometry). The format is cell-based, human. The note with it: for HDR / knock-in efficiency enhancement: five genomic sites (EMX1, VEGFA, HSP90AA1, DYNLT1, AAVS1), wtCas9; for activity in no-recruitment control: PCP no-recruitment control; for knock-in editing activity with dCas9, comparison of SSAPs: dCas9, MS2-MCP. On the procedure:
Transfection HEK293T cells were seeded into 96-well plates (Corning) 12-24 hours prior to transfection at a density of 30,000 cells/well, and 250 ng of total DNA was transfected per well. HeLa and HepG2 cells were seeded into 48-well plates (Corning) one day prior to transfection at a density of 50,000 and 30,000 cells/well respectively, and 400 ng of total DNA was transfected per well. Transfections were performed with Lipofectamine 3000 (Life Technologies) following the manufacturer's instructions.
Fluorescence-activated cell sorting (FACS) mKate knock-in efficiency was analyzed on a CytoFLEX flow cytometer (Beckman Coulter; Stanford Stem Cell FACS Core). 72 hours after transfection, cells were washed once with PBS and dissociated with TrypLE Express Enzyme (Thermo Fisher Scientific). Cell suspension was then transferred to a 96-well U-bottom plate (Thermo Fisher Scientific) and centrifuged at 300×G for 5 minutes. After removing the supernatant, pelleted cells were resuspended with 50 μl 4% FBS in PBS, and cells were sorted within 30 minutes of preparation.
HEK293T, Hela, HepG2 and U2OS cells were seeded into 96-well plates (Corning) 12-24 hours prior to transfection at a density of 30,000 cells/well, and 250 ng of total DNA was transfected per well. Cells were transfected with Lipofectamine 3000 (Life Technologies) following the manufacturer's instructions when the cell are ˜70% confluence. In brief, we used 250 ng total DNA, 0.4 ul Lip3000 reagent, mixed with 10 ul of Opti-MEM per well. For the 250 ng DNA, we used 160 ng of dCas9-SSAP guide RNA plasmids (for double sgRNAd design, use equal amount of the two guide RNA plasmids, e.g., 80 ng each), 60 ng of pMCP-RecT or GFP control plasmid (addgene #64539) and 30 ng of PCR template DNA (the PCR primer could be found in Table 7, the template sequence could be found in Supplementary Sequences). Three days later, the cells were analyzed using FACS.
mKate knock-in efficiency was analyzed on a CytoFLEX flow cytometer (Beckman Coulter; Stanford Stem Cell FACS Core). 72 hours after transfection or 96 hours after electroporation, cells were washed twice with PBS and dissociated with TrypLE Express Enzyme (Thermo Fisher Scientific). Cell suspension was then transferred to a 96-well U-bottom plate (Thermo Fisher Scientific) and centrifuged at 300 g for 5 minutes. After removing the supernatant, pelleted cells were resuspended with 50 μl 4% FBS in PBS, and cells were analyzed within 30 minutes after preparation.

The subject of series [2] is DYNLT1 locus. The series can be described thus: mKate knock-in gene-editing assay, RecE/RecT homologs, DYNLT1 locus. The format is cell-based, human. The note with it: HEK293 cells, MCP fusion, n=3. Put shortly:
(§1)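 RecE/RecT homologs from 15 microbial species, codon-optimized and each fused via E-XTEN linker to MCP with NLS, tested for mKate knock-in. Cells transfected by Lipofectamine 3000 (HEK293T 250 ng DNA/well; HeLa, HepG2 400 ng); knock-in efficiency measured by flow cytometry 72 h post-transfection.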

Series [3] has as its system HSP90AA1 locus. The series can be described thus: mKate knock-in gene-editing assay, RecE/RecT homologs, HSP90AA1 locus. The format is cell-based, human. The note with it: HEK293 cells, MCP fusion, n=3. Put shortly:
as §1

Series [4] relates to endogenous genome targets (ACTB, HSP90AA1). The series can be described thus: Arrayed SSAP library screening, mKate knock-in assay (editing efficiency). The format is cell-based. The note with it: average of HSP90 and ACTB, 3 days after transfection. An outline of the steps: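 Mammalian cells in duplicate were transfected with SSAP-encoding plasmids, with about 50% transfection efficiency. mKate knock-in positive cells and viability, by flow-cytometric live counts, were quantified three days later. RecT SSAP served as positive control and Flag-HA plasmid as negative control.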

The test system of series [5] is mammalian cells. Kind of series: Arrayed SSAP library screening, cell viability by live cell counts via flow cytometry. The format is cell-based. Put shortly: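 Each SSAP plasmid transfected in duplicate (~50% efficiency), with RecT SSAP as positive and Flag-HA as negative control. After three days, mKate-positive cells and viability by flow-cytometric live cell counts were quantified to gauge SSAP fitness effects.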
On the technique in general: In flow cytometry, cells or beads pass a laser one at a time.

B1: RecE_CTD: carboxy terminus domain of E. coli RecE; SEQ ID NO: 3 (protein)
chain: GISNENYHAGPGVSKSQLDDIADTPALYLWRKNAPVDTTKTKTLDLGTAFHCRVLEPEEFSNRFIVAPEFNRRTNSGKEEEKAFLRECASTGKTVITAEEGRKIELMYQSVMALPLGQWLVESAGHAESSIYWEDPETAILCRCRPDKIIPEFHWIMDVKTTADIQRFKTAYYDYRYHVQDAFYSDGYEAQFGVQPTFVFLVASTTIECGRYPVEIFMMGEEAKLAGQLEYHRNLRTLADCLNTDEWPAIKTLSLPRWAKEYAND
In the case of B1, the “HDR / knock-in efficiency enhancement” value in series [1] is recorded as “variable increases in knock-in efficiency”.

B2: Homolog_E15: RecE, Photobacterium sp. JCM 19050; SEQ ID NO: 142 (protein, listed as Photobacterium sp.)
chain: MAERVRTYQRDAVFAHELKAEFDEAVENGKTGVTLEDQARAKRMVHEATTNPASRNWFRYDGELAACERSYFWRDEEAGLVLKARPDKEIGNNLIDVKSIEVPTDVCACDLNAYINRQIEKRGYHISAAHYLSGTGKDRFFWIFINKVKGYEWVAIVEASPLHIELGTYEVLEGLRSIASSTKEADYPAPLSHPVNERGIPQPLMSNLSTYAMKRLEQFREL
As to B2, the “Mean mKate+ (%), DYNLT1” value in series [2] is 5.0700%. For the same molecule, the “Mean mKate+ (%), HSP90AA1” value in series [3] was determined as 6.0500%.

B3: EcRecE_587: Escherichia coli RecE truncated from AA587; SEQ ID NO: 2 (protein)
chain: ADPVIVEDIEPGIYYGISNENYHAGPGVSKSQLDDIADTPALYLWRKNAPVDTTKTKTLDLGTAFHCRVLEPEEFSNRFIVAPEFNRRTNSGKEEEKAFLRECASTGKTVITAEEGRKIELMYQSVMALPLGQWLVESAGHAESSIYWEDPETAILCRCRPDKIIPEFHWIMDVKTTADIQRFKTAYYDYRYHVQDAFYSDGYEAQFGVQPTFVFLVASTTIECGRYPVEIFMMGEEAKLAGQLEYHRNLRTLADCLNTDEWPAIKTLSLPRWAKEYAND
Consider B3, for which, in series [1], the “HDR / knock-in efficiency enhancement” value is given as “variable increases in knock-in efficiency”. Further, in series [2], the “Mean mKate+ (%), DYNLT1” value came to 5.1767%. Besides, the “Mean mKate+ (%), HSP90AA1” value in series [3] stood at 3.7067%.

B4: Homolog_T14: RecT, Pseudobacteriovorax antillogorgiicola; SEQ ID NO: 139 (protein, listed as Pseudobacteriovorax antillogorgiicola)
chain: MGHLVSKTEQDYIKQHYAKGATDQEFEHFIGVCRARGLNPAANQIYFVKYRSKDGPAKPAFILSIDSLRLIAHRTGDYAGCSEPIFTDGGKACTVTVRRNLKSGETGNFSGMAFYDEQVQQKNGRPTSFWQSKPRTMLEKCAEAKALRKAFPQDLGQFYIREEMPPQYDEPIQVHKPKALEEPRFSKSDLSRRKGLNRKLSALGVDPSRFDEVATFLDGTPDRELGQKLKLWLKEAGYGVNQ
With B4, the “Mean mKate+ (%), DYNLT1” value in series [2] came out at 6.7700%. The “Mean mKate+ (%), HSP90AA1” value in series [3] is listed as 4.7200%.

B5: Homolog_E14: RecE, Pseudobacteriovorax antillogorgiicola; SEQ ID NO: 140 (protein, listed as Pseudobacteriovorax antillogorgiicola)
chain: MSKLSNLKVSNSDVDTLSRIRMKEGVYRDLPIESYHQSPGYSKTSLCQIDKAPIYLKTKVPQKSTKSLNIGTAFHEAMEGVFKDKYVVHPDPGVNKTTKSWKDFVKRYPKHMPLKRSEYDQVLAMYDAARSYRPFQKYHLSRGFYESSFYWHDAVTNSLIKCRPDYITPDGMSVIDFKTTVDPSPKGFQYQAYKYHYYVSAALTLEGIEAVTGIRPKEYLFLAVSNSAPYLTALYRASEKEIALGDHFIRRSLLTLKTCLESGKWPGLQEEILELGLPFSGLKELREEQEVEDEFMELVG
For the molecule B5, the “Mean mKate+ (%), DYNLT1” value in series [2] was 6.0167%. In series [3], the “Mean mKate+ (%), HSP90AA1” value worked out at 5.7100%.

B6: Homolog_T15: RecT, Photobacterium sp. JCM 19050; SEQ ID NO: 141 (protein, listed as Photobacterium sp.)
chain: MNTDMIAMPPSPAISMLDTSKLDVMVRAAELMSQAVVMVPDHFKGKPADCLAVVMQADQWGMNPFTVAQKTHLVSGTLGYESQLVNAVISSSKAIKGRFHYEWSDGWERLAGKVQYVKESRQRKGQQGSYQVTVAKPTWKPEDEQGLWVRCGAVLAGEKDITWGPKLYLASVLVRNSELWTTKPYQQAAYTALKDWSRLYTPAVMQGSMTGKSWSLTGRLISPR
Turning to B6, in series [2], the “Mean mKate+ (%), DYNLT1” value was determined as 7.8033%. The “Mean mKate+ (%), HSP90AA1” value in series [3] is 5.2333%.

B7: EcRecT: Escherichia coli RecT SSAP; SEQ ID NO: 171 (Tables 8, 9), SEQ ID NO: 9; positive control in Table 9 (protein)
chain: MTKQPPIAKADLQKTQGNRAPAAIKNNDVISFINQPSMKEQLAAALPRHMTAERMIRIATTEIRKVPALGNCDTMSFVSAIVQCSQLGLEPGSALGHAYLLPFGNKNEKSGKKNVQLIIGYRGMIDLARRSGQIASLSARVVREGDEFNFEFGLDEKLIHRPGENEDAPVTHVYAVARLKDGGTQFEVMTRKQIELVRSQSKAGNNGPWVTHWEEMAKKTAIRRLFKYLPVSIEIQRAVSMDEKEPLTIDPADSSVLTGEYSVIDNSEE
As for B7, the “activity in no-recruitment control” value in series [1] is given as “efficiency increases in a recruitment-dependent manner”. Further, in series [1] (SSAP candidate screen, HSP90AA1, DYNLT1, ACTB, human cells), the “genomic knock-in efficiency of kilobase cassette, dCas9 editing” value is given as at most 6%. Further, the “knock-in editing activity with dCas9, comparison of SSAPs” value in series [1] (human cells) was “highest efficiency for dCas9 editing”; in series [1] (human cells, listed as RecT), “higher knock-in editing activities relative to other SSAPs”. Further, the “HDR / knock-in efficiency enhancement” value in series [1] is “significantly enhanced HDR in all cases”. The “HDR efficiency for kb-scale knock-in” value in series [1] (template bearing 600-800 bp total HA, without selection) was “over 10%”. In addition, in series [2], the “Mean mKate+ (%), DYNLT1” value is 9.9467%. Also, in series [4] (fold over negative control (Flag_HA)), the “Editing Efficiency (Normalized, Average, two targets)” value is 3.807. Moreover, the “Editing Efficiency (Absolute, Average, two targets)” value in series [4] (percent of mKate knock-in) turned out to be 9.4225. Besides, in series [5], the “Cell Viability (Average, two targets)” value amounted to 0.8651. Also, the “Mean mKate+ (%), HSP90AA1” value in series [3] is 6.5467%.

B8: RecE: Escherichia coli RecE exonuclease; SEQ ID NO: 1 (protein, listed as Escherichia coli)
chain: MSTKPLFLLRKAKKSSGEPDVVLWASNDFESTCATLDYLIVKSGKKLSSYFKAVATNFPVVNDLPAEGEIDFTWSERYQLSKDSMTWELKPGAAPDNAHYQGNTNVNGEDMTEIEENMLLPISGQELPIRWLAQHGSEKPVTHVSRDGLQALHIARAEELPAVTALAVSHKTSLLDPLEIRELHKLVRDTDKVFPNPGNSNLGLITAFFEAYLNADYTDRGLLTKEWMKGNRVSHITRTASGANAGGGNLTDRGEGFVHDLTSLARDVATGVLARSMDLDIYNLHPAHAKRIEEIIAENKPPFSVFRDKFITMPGGLDYSRAIVVASVKEAPIGIEVIPAHVTEYLNKVLTETDHANPDPEIVDIACGRSSAPMPQRVTEEGKQDDEEKPQPSGTTAVEQGEAETMEPDATEHHQDTQPLDAQSQVNSVDAKYQELRAELHEARKNIPSKNPVDDDKLLAASRGEFVDGISDPNDPKWVKGIQTRDCVYQNQPETEKTSPDMNQPEPVVQQEPEIACNACGQTGGDNCPDCGAVMGDATYQETFDEESQVEAKENDPEEMEGAEHPHNENAGSDPHRDCSDETGEVADPVIVEDIEPGIYYGISNENYHAGPGISKSQLDDIADTPALYLWRKNAPVDTTKTKTLDLGTAFHCRVLEPEEFSNRFIVAPEFNRRTNAGKEEEKAFLMECASTGKTVITAEEGRKIELMYQSVMALPLGQWLVESAGHAESSIYWEDPETGILCRCRPDKIIPEFHWIMDVKTTADIQRFKTAYYDYRYHVQDAFYSDGYEAQFGVQPTFVFLVASTTIECGRYPVEIFMMGEEAKLAGQQEYHRNLRTLADCLNTDEWPAIKTLSLPRWAKEYAND
B8: in series [1], the “activity in no-recruitment control” value is “had activities without recruitment”.
